# Test results published in patent publication US20250340623A1.
# What was measured:
# Settings in all cases: remark: other sources report otherwise
# [1] = target: alpha-synuclein fibrils, P37840; test: SPR, captured mAb
# [2] = target: monomeric alpha-synuclein, P37840; test: SPR, captured mAb
# [3] = target: monomeric alpha-synuclein, P37840; test: SPR, captured mAb; alpha-synuclein monomers
# [4] = target: alpha-synuclein fibrils, P37840; test: SPR, captured mAb; alpha-synuclein fibrils
Binder,Kd [1] [nM],koff [1] [s⁻¹],kon [1] [M⁻¹ s⁻¹],Kd [2] [nM],koff [2] [s⁻¹],kon [2] [M⁻¹ s⁻¹],Kd [3] [nM],Kd [4] [nM]
"ACI-7089-4418F6-Ab1 (antibody, V domains shown) VH: QVQLQQSGAELARPGASVKVSCKASGYTFTSSGISWLKHRTGQGLEWIGDIYPRSGNTYYNEKFKDKATLTADKSSSTAYMELRSLTSEDSAVYFCSSGNYWGQGTTLTVSS VL: DIVITQDDLSNPVTSGESVSISCRSSKSLLYKDGKTYLNWFLQRPGQSPQLLIYLMSTRASGVSDRFSGSGSGTDFTLEISRVKAEDVGVYYCQQLLEYPLTFGAGTKLELK",0.04,1.14e-05,272000,0.1,9.25e-06,81800,,
"ACI-7067-1111B12-Ab2 (antibody, V domains shown) VH: QVQLLQPGTALVMPGASVKLSCKASGYTFTTYWMHWVKQRPGQGLEWIGNINPINGGSNYNEKFKSKASLTVDKSSSTAYMQLSSLTSEDSAVYYCVIAMDYWGQGTSVTVSS VL: DIQMTQSPSSLSASLGERVSLTCRASQDIGISLNWFQQEPDGTIKRLIYATSSLDSGVPKRFSGNRSGSDYSLTISSLESEDFADYYCLQFASSPLTFGAGTKLELK",39.2,0.00101,26300,8.1,0.0014,172000,,
"ACI-8033-18C11-Ab1 (antibody, V domains shown) VH: QVQLQQPGAELVKPGASVKMSCKAAGYTFSSYWITWVRQRPGQGLDWIGDIYPGGGVTNYNEKFKTKATLTVDTSSSTAYMQLSSLTSEDSAVYYCATAQTTFAYWGQGTLVTVSA VL: DVLMTQTPLSLPVSLGDQASISCRSSQNIVHNNGNTYLEWYLQKPGQSPKLLIYKVSNRFSGVPDRFSGSGSGTDFTLKISRVEAEDLGVYYCFQGSHVPRTFGGGTKLEIK",30.4,0.000251,8270,1.8,0.000263,143000,,
"ACI-7079-2501G2-Ab2 (antibody, V domains shown) VH: EVQLVESGGGLVQPKGSLKLSCAASGFNFNTYAMNWVRQAPGKGLEWVARIRTKSNNFATYYAHSVKDRFTISRDDSESMLYLQMNNLKTEDTAMYYCVRQGLAYYAMDYWGQGTSVTVSS VL: DVLMTQTPLSLPVSLGDQVSISCRSSQTIVHSNGNTYLEWYLQKPGQSPKLLIYKVSNRFSGVPDRFSGSGSGTDFTLKISRVEAEDLGVYYCFQGSQGPLTFGAGTKLELK",27.8,0.000528,19000,2.9,0.00084,291000,,
"ACI-8033-18D12-Ab1 (antibody, V domains shown) VH: QVQLQQPGAELVKPGASVKMSCKASGYTFTSYWITWVRQRPGQGLDWIGDIYPGGGVTNYNEKFKTKATLTVDTSSSTAYMHLSSLTSEDSAVYFCATAQTTFAHWGQGTLVTVSA VL: DVLMTQTPLSLPVSLGDQASISCRSSQNIAHNNGNTYLEWYLQKPGQSPKLLIYKVSNRFSGVPDRFSGSGSGTDFTLKISRVEAEDLGVYYCFQGSHVPRTFGGGTKLEIK",,,,,0.26,8.25e+07,3.2,
"ACI-7067-1113D10-Ab1 (antibody, V domains shown) VH: EVQLVESGGGLVQPKGSLKLSCAASGFTFNTYALHWVRQAPGKGLEWVARIRSKSSNYATYYADSVKDRFTISRDDSQSMLYLQMNNLKTEDTGMYYCVRGGVSPFDYWGQGTTLTVSS VL: QIVLTQSPAIMSASPGEKVTMTCSASSSVSYMHWYQQKSGTSPKRWIYDTSKLASGVPARFSGSGSGTSYSLTISSMEAEDSATYYCQQWSNNPPTFGGGTKLEIK",,4.16e-07,6940,,,,,0.06
"ACI-7079-2501D10-Ab1 (antibody, V domains shown) VH: EVQLVESGGGLVQPKGSLKVSCAASGFTFKTYAMHWVRQAPGKGLEWVARIRSENSNFAKYYADSVKDRFTISRDDSQSMLYLQMNNLKTEDTAMYYCVRGYNGSSLDYWGQGTTLTVSS VL: QIVLTQSPAIMSAFPGERVTMTCSASSSVNYMHWYQQKSGTSPKRWIYDTSKLASGVPARFSGGGSGTSYSLTISNMEAEDAATYYCQQWRSNPPTFGGGTKLEIK",24.7,0.000427,17300,1.6,0.00043,264000,,
"ACI-8033-1F8-Ab1 (antibody, V domains shown) VH: DVQLQESGPGLVKPSQSLSLTCSVTGYSITSGFYWNWIRQFPGNKLEWMGYISYDGSNNYNPSLKNRISIIRDTSKNQFFLKLKSVTSEDTATYYCVRGDVDWGQGTTLTVSS VL: not shown",1010,0.000996,983,24.3,0.000738,30400,,
"ACI-7067-1108H1-Ab1 (antibody, V domains shown) VH: EVKLVESGGGLVQPGGSMKLSCTASGFTFSDAWMNWVRQSPEKGLEWVAEIRNKAHNHATNYAESVKGRFTISGDDSKSSVYLQMNNLRAEDTGIYYCTIYSFWGQGTLVTVSA VL: SIVMTQTPKFLLVSAGDRVTITCKASQSVTNYVAWYHQKPGQSPKLLIYSASNRYSGVPDRFTGSGYGTDFTFTINTVQTEDLAVYFCQQDYRIPYTFGGGTKLEIK",14.3,0.00118,271000,4.4,0.000565,131000,,
"ACI-7067-1112H8-Ab2 (antibody, V domains shown) VH: EVKLEESGGGLVQPGGSMKLSCAASGFTFTDAWMNWVRQSPEKGLEWIAEIRNKAHNYATYYAESVKGRFDISGDDSKSSVYLQMNNLRVEDTGIYYCTIYSYWGPGTLVTVSA VL: SIVMTQTPKFLLMSPGDRVTMTCTASQSVSNYVAWYQQKPGQSPKLLIYSASNRFTGVPDRFTGSGYGTDFTFTINTVQTEDMAVYFCQQDYTSPYTFGGGTKLEIK",18.7,0.00245,285000,6.3,0.00158,250000,,
"ACI-7067-1116F2-Ab1 (antibody, V domains shown) VH: DVQLQESGPGFVKPSQSLSLTCSVTGYSITRGFYWNWIRQFPGNKLEWMGYISDDGNSNYNPSLKNRISITRDTFKNQVFLRLNSVTTEDTATYYCTRGDLLWGQGTTLTVSS VL: not shown",55.1,0.000458,8300,4.9,0.000232,47000,,
"ACI-7067-1108B11-Ab2 (antibody, V domains shown) VH: EVQLVESGGGLVQPKGSLKLSCAASGFTFNTYAMHWVRQAPGKGLEWVARIRSKGSNYATNYADSVKDRFTISRDDSQSMLYLQMNNLKTEDTAMYYCVRGHGSSYFSYWGQGTLVTVSA VL: QIVLTQSPAIMSASPGERITMTCSANSSVTYMHWYQQKSGTSPKRWIYDTSNLASGVPARFSGSGSGTSYSLTISSMEAEDAATYYCQQWKSHPPTFGAGTKLELK",18.6,0.00205,251000,8.1,0.00154,191000,,
"ACI-7079-2503C6-Ab1 (antibody, V domains shown) VH: DVQLQESGPGLVKPSQSLSLTCSVTGYSITSGYYWNWIRLFPGNKLEWLGYINYDGSNNFNPSLKNRISITRDTSKNQFFLKLNSVTSEDTATYFCLRGDWDWGQGTLVTVSA VL: not shown",,,,,0.00012,40500,3,
"ACI-7079-2501B11-Ab3 (antibody, V domains shown) VH: QVQLQQSGPELVKPGASVKISCKASGYAFSSFWMNWMKQRPGKGLEWIGRIYPGDGDAHYNGEFKGRATLTADKSSSTAYMQLSSLTSEDSAVYFCARKGDFYGSNYDYWGQGTTLTVSS VL: QAVVTQESALTTSPGETVTLTCRSSTGAVTTSNYANWVQEKPDHLFTGLIGGTNNRAPGVPARFSGSLIGDKAALTITGAQTEDEAIYFCALWYSNHLVFGGGTRLTVL",31.8,0.000347,10900,2.4,0.000335,141000,,
"ACI-8033-4F3-Ab1 (antibody, V domains shown) VH: EVQLQQSGPELVKPGASVKISCKASGYTFTDYYMNWVKQSHGKSLEWIGDINPNTGTNSYNQKFKGRASLTVDKFSSAAYMELRSLTSEDSAVYYCARTGYGDPISSYYYALDYWGQGTSVTVSS VL: DIVMSQSPSSLAVSAGEKVTMSCKSSQSLLNSRTRKNYLAWYQQKPGQSPKLLIYWASTRESGVPDRFTGSGSGTDFTLTISSVQAEDLAVYYCKQSYNLWTFGGGTKLEIK",0.05,2.24e-07,4500,1.7,0.00016,97000,,
"ACI-8033-17F5-Ab1 (antibody, V domains shown) VH: EVQLQQSGPELVKPGASVKISCKASGYTFTDYFMNWVKQSHGKSLEWIGDINPNIDVTNYNQKFKGKATLTVDKSSSTAYMELRSLTSEDSAVYYCARGRDYAMDFWGQGTSVTVSS VL: DIVMSQSPSSLAVSAGEKVTMSCKSSQSLLNSRTRKNYLAWYQQKPGQSPKLLIYWASTRESGVPDRFTGSGSGTDFTLTISSVQAEDLAVYYCKQSYDLWTFGGGTKLEIK",8.7,0.00012,13700,2.4,0.000232,96600,,
"ACI-8033-19A2-Ab1 (antibody, V domains shown) VH: EVQLVESGGGLVQPKGSLKLSCAASGFSFNTYAMNWVRQAPGKGLEWVARIRSKSNNYATYYVDSVKDRFTISRDDSESMLYLQMNNLKTEDTALYYCVSESAYWGQGTLVTVSA VL: DVVMTQTPLSLPVSLGDQASISCRSSQSLVHSNGNTYLYWYLQKPGQSPKLLIYKVSNRLSGVPDRFSGSGSGTDFTLKISRVEAEDLGVYFCSQSTHVPFTFGSGTKLEIK",6.7,0.000119,17700,6.2,0.0828,1.33e+07,,
"ACI-8033-1A12-Ab1 (antibody, V domains shown) VH: QVHLKQSGADLVRPGASVKLSCKASGYSFTDFYINWVKQTPGQGLEWIARIYPGNNNTFYNEKFKGKATLSAEKSSTTAYMQLSSLTSEDSAVYFCVVGYYGAWGQGTTLTVSS VL: DVVMTQTPLSLPVSLGDQASISCRSSQSLVHSNGNTHLHWYLQKPGQSPKLLIYKVSNRFSGVPDRFSGSGSGTDFTLKISRVEAEDLGFYFCSQSTHVPWTFGGGTKLEIK",9.8,6.53e-05,6660,31.9,0.0327,1.02e+06,,
